US20230285581A1 (published 2023)

T1: full length monkey MSR1 on HEK293.mfMSR1 cells (Macaca fascicularis, UniProt A0A2K5UWE2 1-451)
T1 construct: whole, on cells
T1 sequence: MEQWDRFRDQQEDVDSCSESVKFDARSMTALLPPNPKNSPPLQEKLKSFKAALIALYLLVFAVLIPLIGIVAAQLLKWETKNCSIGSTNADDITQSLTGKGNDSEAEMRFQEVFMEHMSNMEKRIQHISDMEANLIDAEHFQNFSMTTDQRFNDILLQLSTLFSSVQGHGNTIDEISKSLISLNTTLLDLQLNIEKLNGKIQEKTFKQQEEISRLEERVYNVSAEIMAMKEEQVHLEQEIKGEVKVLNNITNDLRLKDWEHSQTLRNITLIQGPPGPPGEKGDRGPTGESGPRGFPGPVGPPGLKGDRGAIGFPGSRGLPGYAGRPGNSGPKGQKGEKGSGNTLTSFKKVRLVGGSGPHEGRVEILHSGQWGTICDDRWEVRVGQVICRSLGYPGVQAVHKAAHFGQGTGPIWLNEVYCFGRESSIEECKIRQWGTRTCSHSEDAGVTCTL

T2: mouse MSR1 extracellular domain expressed with a N-terminal nonahistidine tag (mouse, UniProt P30204 79-458)
T2 construct: extracellular domain; Bought reagent; also called His9-mMSR1
T2 sequence: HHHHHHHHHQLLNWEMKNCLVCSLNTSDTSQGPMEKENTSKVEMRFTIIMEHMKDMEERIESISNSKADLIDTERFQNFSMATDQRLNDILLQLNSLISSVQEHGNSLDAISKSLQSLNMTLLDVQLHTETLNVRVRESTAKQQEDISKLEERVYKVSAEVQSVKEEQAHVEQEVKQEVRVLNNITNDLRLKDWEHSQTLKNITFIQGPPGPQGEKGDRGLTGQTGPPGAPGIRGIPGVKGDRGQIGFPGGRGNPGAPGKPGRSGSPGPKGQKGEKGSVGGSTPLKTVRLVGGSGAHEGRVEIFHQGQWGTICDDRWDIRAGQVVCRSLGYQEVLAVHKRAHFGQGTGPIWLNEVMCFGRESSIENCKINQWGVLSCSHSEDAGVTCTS

B1: H1xH29282P2 (antibody, V domains shown)
VH: EVQLVESGGGLVQPGGSLRLSCAASGFTFSTYAMSWVRQAPGKGLEWVSTISGRSDITYFADSVKGRFTVSRDNSKTTLYLQMNSLRAEDTAVYYCATDDDLPLDYWGQGTLVTVSS
VL: not shown
notes: the prefix H1xH is not explained for the anti-MSR1 antibodies
B2: H2aM21229N (antibody, mouse IgG2a, V domains shown)
VH: EVQLVESGGGLVKPGGSLRLSCAASGFTFSRYSMNWVRQAPGKGLEWVSSISSSSSYIYYGDTVKGRFTISRDNAKKSLYLQMNSLRAEDTAVYYCVRDRGQLVLYFDYWGQGTLVTVSS
VL: DIQMTQSPASLSTSIRDRVTITCRASLSISSFLNWFQQRPGKAPKLLIYVASNLQSGVPSRFSDSGSGTDFTLTISSLQPEDFATYYCQQNYSTPPITFGQGTRLEIK
notes: mouse IgG2a Fc (H2aM)
B3: H1H27766P2-N297Q (antibody, human IgG1, V domains shown)
VH: EVQLVESGGGLVQPGGSLRLSCAASGFTFSSFAMSWVRQAPGKELEWVSSISGRGGSTYYADSVRGRFTISRDNSKITLYLQMNSLRAEDTAVYYCAKDIVFRYTSSAYWYFDLWGRGTLVTVSS
VL: not shown
notes: human IgG1 Fc with N297Q; also called H1H27766P-N297Q
B4: H1H21234N-N297Q (antibody, human IgG1, V domains shown)
VH: QVQLQESGPGLVKPSETLSLTCTVTGGSISRNYWSWIRQPPGKGLEWIGYIYYSGSIDYNPSLKSRVTISVDTSKNQFSLKLSSMTAADTAVYYCARDRWNWKYGMDVWGQGTTVIVSS
VL: EIVLTQSPGTLSLSPGERATLSCRASQTVRNNYLAWYHQKPGQAPRLLIYGASSRATGIPDRFSGSGSGTDFTLTISRLEPEDFTVYYCHQYGNSPWTFGQGTKMEIKR
notes: human IgG1 Fc with N297Q
B5: H1H21234N (antibody, human IgG1, V domains shown)
VH: QVQLQESGPGLVKPSETLSLTCTVTGGSISRNYWSWIRQPPGKGLEWIGYIYYSGSIDYNPSLKSRVTISVDTSKNQFSLKLSSMTAADTAVYYCARDRWNWKYGMDVWGQGTTVIVSS
VL: EIVLTQSPGTLSLSPGERATLSCRASQTVRNNYLAWYHQKPGQAPRLLIYGASSRATGIPDRFSGSGSGTDFTLTISRLEPEDFTVYYCHQYGNSPWTFGQGTKMEIKR
notes: original human IgG1 Fc

Legend:
[1] = target: T1, full length monkey MSR1 on …; test: ECL cell binding, HEK293.mfMSR1 cells
[2] = target: T2, mouse MSR1 extracellular domain …; test: BLI (Octet), 25C, mAb captured; no dissociation seen, kd fixed at 5.00E-05
Procedure: Binding affinities and kinetic constants of human anti-MSR1 antibodies for different MSR1 reagents were determined using a real time, label-free bio-layer interferometry assay on an OCTET® HTX biosensor platform (Pall FortéBio Corp., Menlo Park, Calif.). The experiment was performed at 25° C. in 10 mM HEPES, 150 mM NaCl, 3 mM EDTA, 0.05% v/v Surfactant Tween-20, and 1 mg/mL BSA, pH7.4 (HBS-EBT) buffer with the plate shaking at the speed of 1000 rpm. […] The anti-MSR1 monoclonal antibodies were captured by dipping either anti-human Fc (AHC) or anti-mouse Fc (AMC) Octet biosensors in wells containing 5 μg/mL or 10 μg/mL of anti-MSR1 monoclonal antibody for 45-90 seconds. […] The binding of different MSR1 reagents to the captured anti-MSR1 monoclonal antibody was measured for 4 minutes and the dissociation of monoclonal antibody bound MSR1 reagent was monitored for 8-10 minutes in HBS-EBT buffer.
The association rate (kₐ) and dissociation rate (kd) were determined by fitting the real-time binding sensorgrams to a 1:1 binding model with mass transport limitation using Scrubber 2.0c curve-fitting software. Binding dissociation equilibrium constant (KD) and dissociative half-life (t½) were calculated from the kinetic rates as:

| Binder | ratio of 11 nM antibody binding signal (RLU) to isotype control [1] | t½ [2] |
| --- | --- | --- |
| B1 | 1 ratio | – |
| B2 | 27 ratio | – |
| B3 | 13 ratio | – |
| B4 | – | ≥ 3.85 h |
| B5 | – | ≥ 3.85 h |
